# Laboratory results as given in publication doi:10.1101/2025.03.04.641466.
# Columns and labels:
# [1] = target: EGFP-vinculin (UniProt P18206); assay: FRET or BRET
# [2] = target: mTFP1-vinculin (UniProt P18206); assay: FRET or BRET
Substance,FRET efficiency [1],FRET efficiency [2] [%]
RIAM-mScarlet (RIAM C-terminally tagged with mScarlet-I) (from UniProt Q7Z5R6 1-666) (natural protein),13.5,–
mScarlet-RIAM (RIAM N-terminally tagged with mScarlet-I) (from UniProt Q7Z5R6 1-666) (natural protein),16.4,20
